Test system: MS2 coat protein
Assay: apparent KD of MS2 coat protein; designed switch direction (-1 OFF switch, 1 ON switch): 1; higher = weaker reporter binding
In short: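 RNA switches sharing common flanks were transcribed by stalled E. coli RNA polymerase on Illumina chips. A doubling series of SNAP-549-labelled MS2 coat protein, from 0.7 or 1.5 nM to 3 µM, was applied in Tris-HCl pH 7.5 buffer with KCl, MgCl2, BSA, DTT, tRNA and Tween-20. Each step lasted 0.8–1.5 h at the bottom of the series and 10–20 min at the top. Normalised cluster fluorescence was curve-fitted, giving apparent KD as the per-design median over clusters.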

[1] = input ligand: microRNA oligo, concentration not stated
[2] = Eterna round: R95, input ligand: FMN 200 uM
[3] = Eterna round: R95, input ligand: microRNA oligo, concentration not stated
[4] = Eterna round: R95, input ligand: none

Sequence	apparent KD of MS2 coat protein (input ligand: FMN 200 uM) [nM]	apparent KD of MS2 coat protein [1] [nM]	apparent KD of MS2 coat protein (input ligand: none) [nM]	apparent KD of MS2 coat protein [2] [nM]	apparent KD of MS2 coat protein [3] [nM]	apparent KD of MS2 coat protein [4] [nM]
ACCGAGAGGCUAGGAUAUUAGGGCAUUUGCAUAUGAGAAGGAGCCAGAUGGCCACAUGAGGAUCACCCAUGUCAACCCUGGACA [Eternabot solution 4] (Eterna round: R96, puzzle: Same State NG 1)	22.5	12.9	18.2			
UGGAUCUAGGCUUGCCUGGGUCCAUGUUGACAUGAGGAUCACCCAUGUGUUUUUUUUUUGCUUUUUGUUUGUCAACA [JL A Humble Attempt mod 3] (puzzle: Sensor for hsa-mir-208a)				19.1	12.3	21.7
CGUCCGGCCUGUGCUGGACGGAAGCAUGUACAUGAGGAUCACCCAUGUUCAUGUGCAGGCUUUUUGCUCGUCUUGUG [salish99_mir208a_modof_jandersonlee_005] (puzzle: Sensor for hsa-mir-208a)				102	13.4	117
UGCUGUGUGGUAGGAUAUGUAGGAUAUGUACAUGAGGAUCACCCAUGUCAGUUAAUGACAGAAGGAUAGAAGGACCAGAGGGCU [pwkr ssNG2 2FMN 1F5s.3] (Eterna round: R96, puzzle: Same State NG 2)	254	205	249			
GGUCCAUCAUGAGGAUAUGGCACCUUAUUGGUGCCAGAAGGCAUGUAAAUUAUAAUAAACAUGAGGAUCACCCAUGUAUGGACC [Eli NG1ss - 96] (Eterna round: R96, puzzle: Same State NG 1)	439	55.5	137			
CAGCACUGUCGAGAGGAUAUGCGGUGAUGGACAUGAGGAUCACCCAUGUUAGCGACAGCAUCACGGCAGAAGGCUCUGCUGCUGC [Soteed Omei mod 36] (puzzle: Same State 2)					47.7	
AGAUCAUGACGAGGAUAUGGUACAUGAGGAUCACCCAUGUAUGUACCACGACGGAAACGUCGAAUCCAGAAGGCGUCAUGAUCA [Mat - Same State NG 2 - JL mod - D24] (Eterna round: R96, puzzle: Same State NG 2)	30.5	109	130			
GAGUGACAUGAGGAUCACCCAUGUAGAAUAGAACAAGGAUAUGUGGAAGGCGGAGGAGAGACAGAAGGUGUUGAGG [JR_SS1_Sub058] (puzzle: Same State 1)				52	77.1	119
UGUUAACAUGAGGAUCACCCAUGUCAAAUGAAUCGAGGAUAUGGAAAGUAAUAAGAUGAACUAGAAGGUGAAGUUG [Altered State 1-19 - Jieux - Same State 1] (puzzle: Same State 1)				37.1	55.7	57.3
AUAAAACAUGAGGAUCACCCAUGUCAACAAAGUCGAGGAUAUGGGCAAAUAAAAUUAGAACCAGAAGGCGAAUAAU [salish99_ss1_r3_020] (puzzle: Same State 1)				34.4	330	379
CGUCGUUUGAUAGGAUAUCGCUUUACAUGAGGAUCACCCAUGUUUACCACGCUGGUUUUUCUUUCCGAGAAGGAUUCUGAUGUU [salish99_SSNG02_r04_023] (Eterna round: R96, puzzle: Same State NG 2)	35.7	25.2	35.9			
CAAGAAAACGCAGGAUAUACUCGGGCUACCCGAGUAGAAGGGUGACACAUGAGGAUCACCCAUGUACAUAGCAUUAGCUAUGGA [Onedve] (Eterna round: R96, puzzle: Same State NG 1)	2270	827	770			
GCAAACACAUGAGGAUCACCCAUGUGGAAAGAGCAAUUAGGCUAGGAUAUUCAUGUCGUUUGCAAGAAGAAGGAGCCAUAGUGG [Eternabot solution 20] (Eterna round: R96, puzzle: Same State NG 3)		205				
